*: point of attachment. TFB = 2,3,4,5-tetrafluorobenzoyl; PFB = pentafluorobenzoyl; Cbz = O=C(OCc1ccccc1)*; R110 = rhodamine 110
T1: recombinant caspase-3 (UniProt P42574 29-277, limits assumed)
T1 sequence (looked up): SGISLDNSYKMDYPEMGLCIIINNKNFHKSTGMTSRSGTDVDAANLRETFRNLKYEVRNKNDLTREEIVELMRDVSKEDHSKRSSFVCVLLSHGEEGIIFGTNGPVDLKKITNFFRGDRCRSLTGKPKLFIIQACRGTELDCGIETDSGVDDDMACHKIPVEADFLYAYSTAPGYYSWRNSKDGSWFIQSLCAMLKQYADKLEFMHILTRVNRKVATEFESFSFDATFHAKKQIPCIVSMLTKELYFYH


Target: T1, recombinant caspase-3
Experiment: cell-based or functional assay

Row | increase in fluorescence on cleavage of the substrate (cell-free enzyme assay) [fold] | increase in fluorescence on cleavage of the substrate (cell-free enzyme assay, 10 uM substrate, 3 hours at 37 C) [fold] | Binder
1 | > 10 | – | Cbz-DEVD-{R110-PFB} [N-(Z-Asp-Glu-Val-Asp)-N'-pentafluorobenzoyl-Rhodamine 110]
2 | – | ~50 | Ac-DEVD-{R110-TFB} [N-(Ac-DEVD)-N'-(2,3,4,5-tetrafluorobenzoyl)-R110]
